Measured values published in US20260209789A1, “TRIGGER-INDUCIBLE MRNA CIRCULARIZATION” (WESTLAKE UNIVERSITY, priority 2022, published 2026).

System: N2A, Hepa1-6 and B16-F10 cells
Experiment: AFP promoter-driven NanoLuc reporter and AFP qRT-PCR
Format: cell-based, murine
Conditions: AFP-deficient cell lines, 48 h
Experimental: (A) Quantification of AFP-levels using (left panel) TSP-driven reporter gene expression and (right panel) qRT-PCR. (left panel) N2A, Hepa1-6 and B16-F10 cells were co-transfected with a PMusAFP-driven NanoLuc expression vector (pSLM54) and a constitutive FLuc expression vector (pYW99). Luciferase levels were quantified at 48 h after transfection. Data presented are mean±SD of relative luciferase activity (NanoLuc/FLuc) for n=3 individual experiments. (right panel) Relative AFP expression levels in N2A, Hepa1-6 and B16-F10 cells were profiled by qRT-PCR using murine AFP-specific primers listed in Table S1 and normalized to the gene encoding murine ribosomal protein (Rplp0).
Reverse transcription-polymerase chain reaction (RT-PCR). For quantitative analysis, PCR reaction was carried out with an initial step of 95° C. for 30 s followed by 40 cycles of 95° C. for 10 s and 60° C. for 30 s on the Applied Biosystems QuantStudio 1 Real-Time PCR System (ThermoFisher Scientific) using the ChamQ Universal SYBR qPCR Master Mix (Vazyme Biotech; cat. no. Q711-02) and the primers listed in Table S1. The relative cycle threshold (CT) was determined and normalized against the expression level of endogenous human glyceraldehyde 3-phosphate dehydrogenase (GAPDH) or murine ribosomal protein (Rplp0) genes. […]

B1: PAFP: alpha-fetoprotein (AFP) promoter, model tissue-specific promoter (nucleic acid)
DNA: AGGGGAAATAATCTATTTGAACAGTTTAGATGGTGAAGAACATTTGCAGCATTTGCAAGATTTTTTTCCACTCTGAAGTGGTCTTTGTCCTTGAACATAGGATACAAGTGACCCCTGCTCTGTTAATTATTGGCAAATTGCCTAACTTCAACGTAAGGAAATAGAGTCATATGTTTGCTCACTGAAGGTTACTAGTTAACAGGCATCCCTTAAACAGGATATAAAAGGACTTCAGCAGGACTGCTCGAAACATCCCACTTCCAGCACTGCCTGCGGTGAAGGA
  promoter-driven reporter gene expression (NanoLuc/FLuc): non-specific PAFP-driven reporter gene expression
